In patent publication US11078465B2, “Alcohol dehydrogenase mutant and application thereof in synthesis of diaryl chiral alcohols” (Jiangnan University, priority 2018, dated 2021):
“And” between values parts separate entries of the source, which are not always exact repeats. Identical values can stand only once.

B1: E214V: valine for glutamate at position 214 of the alcohol dehydrogenase of SEQ ID No. 2 (protein)
chain: MSVLISGASGYIAKHIVRVLLEQNYKVIGTVRSQDKADKLLKQYNNPNLSYEIVPEIANLDAFDDIFKKHGKEIKYVIHAASPVNFGAKDLEKDLVIPAINGTKNMFEAIKKYAPDTVERVVMTASYASIMTPHRQNDPTLTLDEETWNPVTEENAYENVFTAYCASKTFAEKEAWKFVKENSDAVKFKLTTIHPSFVFGPQNFDEDVTKKLNVTCEIINGLLHAPFDTKVEKTHFSQFIDVRDVAKTHVLGFQKDELINQRLLLCNGAFSQQDIVNVFNEDFPELKGQFPPEDKDTDLNKGVTGCKIDNEKTKKLLAFEFTPFHKTIHDTVYQILHKEGRV
modifications: Protein translated from synthetic DNA
B2: E214G: glycine for glutamate at position 214 of the alcohol dehydrogenase of SEQ ID No. 2 (protein)
chain: MSVLISGASGYIAKHIVRVLLEQNYKVIGTVRSQDKADKLLKQYNNPNLSYEIVPEIANLDAFDDIFKKHGKEIKYVIHAASPVNFGAKDLEKDLVIPAINGTKNMFEAIKKYAPDTVERVVMTASYASIMTPHRQNDPTLTLDEETWNPVTEENAYENVFTAYCASKTFAEKEAWKFVKENSDAVKFKLTTIHPSFVFGPQNFDEDVTKKLNGTCEIINGLLHAPFDTKVEKTHFSQFIDVRDVAKTHVLGFQKDELINQRLLLCNGAFSQQDIVNVFNEDFPELKGQFPPEDKDTDLNKGVTGCKIDNEKTKKLLAFEFTPFHKTIHDTVYQILHKEGRV
modifications: Protein translated from synthetic DNA
B3: S237C: alcohol dehydrogenase mutant obtained by random mutation screening (protein)
chain: MSVLISGASGYIAKHIVRVLLEQNYKVIGTVRSQDKADKLLKQYNNPNLSYEIVPEIANLDAFDDIFKKHGKEIKYVIHAASPVNFGAKDLEKDLVIPAINGTKNMFEAIKKYAPDTVERVVMTASYASIMTPHRQNDPTLTLDEETWNPVTEENAYENVFTAYCASKTFAEKEAWKFVKENSDAVKFKLTTIHPSFVFGPQNFDEDVTKKLNGTCEIINGLLHAPFDTKVEKTHFCQFIDVRDVAKTHVLGFQKDELINQRLLLCNGAFSQQDIVNVFNEDFPELKGQFPPEDKDTDLNKGVTGCKIDNEKTKKLLAFEFTPFHKTIHDTVYQILHKEGRV
modifications: Protein translated from synthetic DNA
notes: alcohol dehydrogenase mutant obtained by random mutation screening
B4: S237A: alcohol dehydrogenase mutant obtained by random mutation screening (protein)
chain: MSVLISGASGYIAKHIVRVLLEQNYKVIGTVRSQDKADKLLKQYNNPNLSYEIVPEIANLDAFDDIFKKHGKEIKYVIHAASPVNFGAKDLEKDLVIPAINGTKNMFEAIKKYAPDTVERVVMTASYASIMTPHRQNDPTLTLDEETWNPVTEENAYENVFTAYCASKTFAEKEAWKFVKENSDAVKFKLTTIHPSFVFGPQNFDEDVTKKLNITCEIINGLLHAPFDTKVEKTHFAQFIDVRDVAKTHVLGFQKDELINQRLLLCNGAFSQQDIVNVFNEDFPELKGQFPPEDKDTDLNKGVTGCKIDNEKTKKLLAFEFTPFHKTIHDTVYQILHKEGRV
modifications: Protein translated from synthetic DNA
notes: as for B3
B5: E214S: serine for glutamate at position 214 of the alcohol dehydrogenase of SEQ ID No. 2 (protein)
chain: MSVLISGASGYIAKHIVRVLLEQNYKVIGTVRSQDKADKLLKQYNNPNLSYEIVPEIANLDAFDDIFKKHGKEIKYVIHAASPVNFGAKDLEKDLVIPAINGTKNMFEAIKKYAPDTVERVVMTASYASIMTPHRQNDPTLTLDEETWNPVTEENAYENVFTAYCASKTFAEKEAWKFVKENSDAVKFKLTTIHPSFVFGPQNFDEDVTKKLNSTCEIINGLLHAPFDTKVEKTHFSQFIDVRDVAKTHVLGFQKDELINQRLLLCNGAFSQQDIVNVFNEDFPELKGQFPPEDKDTDLNKGVTGCKIDNEKTKKLLAFEFTPFHKTIHDTVYQILHKEGRV
modifications: Protein translated from synthetic DNA
B6: E214R: arginine for glutamate at position 214 of the alcohol dehydrogenase of SEQ ID No. 2 (protein)
chain: MSVLISGASGYIAKHIVRVLLEQNYKVIGTVRSQDKADKLLKQYNNPNLSYEIVPEIANLDAFDDIFKKHGKEIKYVIHAASPVNFGAKDLEKDLVIPAINGTKNMFEAIKKYAPDTVERVVMTASYASIMTPHRQNDPTLTLDEETWNPVTEENAYENVFTAYCASKTFAEKEAWKFVKENSDAVKFKLTTIHPSFVFGPQNFDEDVTKKLNRTCEIINGLLHAPFDTKVEKTHFSQFIDVRDVAKTHVLGFQKDELINQRLLLCNGAFSQQDIVNVFNEDFPELKGQFPPEDKDTDLNKGVTGCKIDNEKTKKLLAFEFTPFHKTIHDTVYQILHKEGRV
modifications: Protein translated from synthetic DNA
B7: E214N: asparagine for glutamate at position 214 of the alcohol dehydrogenase of SEQ ID No. 2 (protein)
chain: MSVLISGASGYIAKHIVRVLLEQNYKVIGTVRSQDKADKLLKQYNNPNLSYEIVPEIANLDAFDDIFKKHGKEIKYVIHAASPVNFGAKDLEKDLVIPAINGTKNMFEAIKKYAPDTVERVVMTASYASIMTPHRQNDPTLTLDEETWNPVTEENAYENVFTAYCASKTFAEKEAWKFVKENSDAVKFKLTTIHPSFVFGPQNFDEDVTKKLNNTCEIINGLLHAPFDTKVEKTHFSQFIDVRDVAKTHVLGFQKDELINQRLLLCNGAFSQQDIVNVFNEDFPELKGQFPPEDKDTDLNKGVTGCKIDNEKTKKLLAFEFTPFHKTIHDTVYQILHKEGRV
modifications: Protein translated from synthetic DNA
B8: E214I: isoleucine for glutamate at position 214 of the alcohol dehydrogenase of SEQ ID No. 2 (protein)
chain: MSVLISGASGYIAKHIVRVLLEQNYKVIGTVRSQDKADKLLKQYNNPNLSYEIVPEIANLDAFDDIFKKHGKEIKYVIHAASPVNFGAKDLEKDLVIPAINGTKNMFEAIKKYAPDTVERVVMTASYASIMTPHRQNDPTLTLDEETWNPVTEENAYENVFTAYCASKTFAEKEAWKFVKENSDAVKFKLTTIHPSFVFGPQNFDEDVTKKLNITCEIINGLLHAPFDTKVEKTHFSQFIDVRDVAKTHVLGFQKDELINQRLLLCNGAFSQQDIVNVFNEDFPELKGQFPPEDKDTDLNKGVTGCKIDNEKTKKLLAFEFTPFHKTIHDTVYQILHKEGRV
modifications: Protein translated from synthetic DNA
B9: E214Q: glutamine for glutamate at position 214 of the alcohol dehydrogenase of SEQ ID No. 2 (protein)
chain: MSVLISGASGYIAKHIVRVLLEQNYKVIGTVRSQDKADKLLKQYNNPNLSYEIVPEIANLDAFDDIFKKHGKEIKYVIHAASPVNFGAKDLEKDLVIPAINGTKNMFEAIKKYAPDTVERVVMTASYASIMTPHRQNDPTLTLDEETWNPVTEENAYENVFTAYCASKTFAEKEAWKFVKENSDAVKFKLTTIHPSFVFGPQNFDEDVTKKLNQTCEIINGLLHAPFDTKVEKTHFSQFIDVRDVAKTHVLGFQKDELINQRLLLCNGAFSQQDIVNVFNEDFPELKGQFPPEDKDTDLNKGVTGCKIDNEKTKKLLAFEFTPFHKTIHDTVYQILHKEGRV
modifications: Protein translated from synthetic DNA

How the values were obtained:
[1] = Kinetic analysis of alcohol dehydrogenase and mutants (NADPH oxidation, 340 nm, double reciprocal curve); assay type: biochemical; conditions: substrate CPMK
Method: Adopting a total reaction system of 200 μL, including: 1.0 mM NADPH, 1.0 mM substrate CPMK and sodium phosphate buffer (PBS, 100 mM, pH 7.0), fully and evenly mixing, maintaining at 30° C. for 2 min, adding an appropriate amount of enzyme solution, and detecting the change in light absorption at 340 nm.
The enzyme activity was calculated by the following formula: Enzyme activity (U)=EW×V×10^3/(6220×I);
in the formula, EW is the change in absorbance at 340 nm in 1 min; V is the volume of a reaction solution in mL; 6220 is the molar extinction coefficient of NADPH in L/mol·cm); and 1 is the optical path distance in cm. One activity unit (U) corresponds to the amount of enzyme required to catalyze the oxidation of 1 μmol NADPH per minute under the above conditions.
A column used for purification was a nickel affinity column HisTrap FF crude, and purification was achieved through affinity chromatography using a histidine tag on recombinant protein. The nickel column was equilibrated with a solution A first, a crude enzyme solution was loaded, a penetrating peak was further eluted off using the solution A, and after equilibrium, a solution B (20 mM sodium phosphate, 500 mM NaCl, and 1000 mM imidazole, pH 7.4) was used for gradient elution to elute off the recombinant protein bound to the nickel column, so as to obtain the recombinant alcohol dehydrogenase mutant. The purified protein was subjected to activity measurement (CPMK as substrate, and NADPH as coenzyme) and SDS-PAGE analysis. […] The purified alcohol dehydrogenase protein was then replaced into a Tris-HCl (100 mM, pH 7.0) buffer using a Hi Trap Desalting column (GE Healthcare).
The activity of KpADH at different substrate concentrations and coenzyme concentrations was determined, and a double reciprocal curve was made based on the reciprocal of activity and substrate concentration to calculate kinetic parameters.

[2] = Stereoselectivity (ee) of CPMK reduction, chiral liquid chromatography; assay type: biochemical; conditions: for ee % / e.e.: product configuration in brackets
Method: In an embodiment of the present disclosure, a chromatographic analysis method is as follows: 100 μL of reactant liquid is taken, 500 μL of ethyl acetate is added, shaking is performed for 1-2 min, centrifugation is performed at 12,000 rpm for 2-5 min, supernatant liquid is taken into a centrifuge tube, after an organic phase naturally volatilizes completely, 500 μL of chromatographically pure ethanol is added, and chiral liquid chromatography and gas chromatography are performed to analyze the transformation rate and the ee value.
Method for determining optical purity ee:
As: molar concentration of (S)-CPMA obtained by liquid chromatography; and AR: molar concentration of (R)-CPMA obtained by liquid chromatography.

Molecule	Kcat [1]	Km [1]	Vmax [1]	ee value, (R)-CPMA ([2]; R configuration product)	ee % [2]	configuration of product / stereoselectivity in words [2]	e.e. [2]
B1	8.91 ± 0.48 s⁻¹	420 µM	13.36 ± 0.89 µM/min/mg	91% and 95.3%	95.3 (R) %	–	–
B2	5.5 ± 0.10 s⁻¹	250 µM	8.26 ± 0.15 µM/min/mg	–	25.6 (S) %	inversion from an R configuration to an S configuration	25.6 (S)
B3	–	–	–	–	–	–	27 (R)
B4	–	–	–	–	–	–	96.1 (R)
B5	11.86 ± 0.48 s⁻¹	540 ± 70 µM	17.79 ± 0.88 µM/min/mg	–	14.2 (R) %	–	–
B6	15.85 ± 0.49 s⁻¹	980 ± 80 µM	23.77 ± 0.90 µM/min/mg	–	42.5 (R) %	–	–
B7	22.90 ± 1.12 s⁻¹	420 ± 60 µM	34.35 ± 2.05 µM/min/mg	–	58.1 (R) %	–	–
B8	8.77 ± 0.23 s⁻¹	410 ± 40 µM	13.15 ± 0.43 µM/min/mg	–	93.0 (R) %	–	–
B9	16.26 ± 1.33 s⁻¹	1300 ± 200 µM	24.4 ± 0.20 µM/min/mg	–	58.5 (R) %	–	–
